Measurements as given in US6500669, “Programmable genotoxic agents and uses therefor” (Massachusetts Institute of Technology).

Target: streptavidin (UniProt P22629 P22629:25-183)
Experiment: EMSA; half-maximum binding (C1/2) via biotin on the adduct; reversed by free d-biotin; 100 mM NaCl, MgCl2, pH 7.4, room temperature
Conditions: tags: Pierce; chain copies: 4; label: 5' 32P
Procedure: Gel Mobility Shift Assay. […] A constant amount of the lesioned U-17 (3200 cpm, ~0.1 nM) was used in each incubation, with the concentration of streptavidin varied from 0 to 50 nM. Free d-biotin (0.4 mM) was added into the incubation(s) where indicated. After electrophoresis, the gel was dried and exposed to x-ray film with an intensifying screen. The dried gel was also exposed to a PhorphorImager screen and the data were analyzed with IMAGEQUANT software (Molecular Dynamics, Sunnyvale, Calif.).

Sequence of streptavidin (P22629 25-183, one chain of several): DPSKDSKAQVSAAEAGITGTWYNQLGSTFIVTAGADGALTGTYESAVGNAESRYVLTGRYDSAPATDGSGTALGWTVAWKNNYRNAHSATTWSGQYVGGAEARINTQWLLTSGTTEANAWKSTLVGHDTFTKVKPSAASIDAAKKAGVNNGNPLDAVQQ

B1: TMP-biotin monoadducted U-17 (dsDNA)
DNA 1: CGGCCGTACGUGCGCCG
DNA 2: CGGCGCACGTACGGCCG
modifications: TMP-biotin (psoralen-biotin) monoadduct at T7 of the central TA; deoxyuridine at position 11
Kd: ~1.5 nM
